The record followed here is article PMC8956632.

For the assay, the target named is 5-HT1AR-Rluc (UniProt P08908). Nature of the assay: BRET. The settings on record: HEK293 cells, basal (no agonist); parent: est. 0.27; read off a plot. Background: In BRET a luciferase serves as donor, and the signal depends on an acceptor being close.
5-HT1AR-Rluc, sequence (P08908 whole entry): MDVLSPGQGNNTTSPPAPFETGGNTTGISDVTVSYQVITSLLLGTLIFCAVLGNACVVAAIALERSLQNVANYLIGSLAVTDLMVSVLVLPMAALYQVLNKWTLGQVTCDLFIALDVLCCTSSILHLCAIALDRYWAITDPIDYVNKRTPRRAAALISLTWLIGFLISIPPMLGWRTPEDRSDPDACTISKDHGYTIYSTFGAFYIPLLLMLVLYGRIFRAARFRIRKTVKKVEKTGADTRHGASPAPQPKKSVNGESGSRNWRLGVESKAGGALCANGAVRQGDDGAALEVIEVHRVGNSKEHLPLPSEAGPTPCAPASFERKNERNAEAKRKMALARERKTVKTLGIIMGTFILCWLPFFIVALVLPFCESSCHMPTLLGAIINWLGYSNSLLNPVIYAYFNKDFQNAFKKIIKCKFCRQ

OX1R-EGFP, sequence (O43613 whole entry, stated change not applied): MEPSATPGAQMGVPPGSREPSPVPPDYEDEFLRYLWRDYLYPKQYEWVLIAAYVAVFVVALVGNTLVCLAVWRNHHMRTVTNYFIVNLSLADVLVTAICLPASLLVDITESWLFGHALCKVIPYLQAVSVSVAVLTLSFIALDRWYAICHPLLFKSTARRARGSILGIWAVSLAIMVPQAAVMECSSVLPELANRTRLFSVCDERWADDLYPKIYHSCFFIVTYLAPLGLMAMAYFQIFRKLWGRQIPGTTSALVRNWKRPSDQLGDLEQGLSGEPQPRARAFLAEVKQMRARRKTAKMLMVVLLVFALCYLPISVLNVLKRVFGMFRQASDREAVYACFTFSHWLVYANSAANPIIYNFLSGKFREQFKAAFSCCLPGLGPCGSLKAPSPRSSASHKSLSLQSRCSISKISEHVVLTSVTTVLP

For OX1R-EGFP (from UniProt O43613) L168A, the response is 0.27.
